The source of these data is PMC4051775, “Intestinal Cell Barrier Function In Vitro Is Severely Compromised by Keratin 8 and 18 Mutations Identified in Patients with Inflammatory Bowel Disease” (PLoS ONE, 2014).

What all share (settings): both partners purified
In assay [1] the target is T1, keratin 8 wild type recombinant protein (human, UniProt P05787 1-483).
T1 construct: keratin 8 (K8), wild type, recombinant protein; also called K8 WT; K8
T1 sequence (looked up): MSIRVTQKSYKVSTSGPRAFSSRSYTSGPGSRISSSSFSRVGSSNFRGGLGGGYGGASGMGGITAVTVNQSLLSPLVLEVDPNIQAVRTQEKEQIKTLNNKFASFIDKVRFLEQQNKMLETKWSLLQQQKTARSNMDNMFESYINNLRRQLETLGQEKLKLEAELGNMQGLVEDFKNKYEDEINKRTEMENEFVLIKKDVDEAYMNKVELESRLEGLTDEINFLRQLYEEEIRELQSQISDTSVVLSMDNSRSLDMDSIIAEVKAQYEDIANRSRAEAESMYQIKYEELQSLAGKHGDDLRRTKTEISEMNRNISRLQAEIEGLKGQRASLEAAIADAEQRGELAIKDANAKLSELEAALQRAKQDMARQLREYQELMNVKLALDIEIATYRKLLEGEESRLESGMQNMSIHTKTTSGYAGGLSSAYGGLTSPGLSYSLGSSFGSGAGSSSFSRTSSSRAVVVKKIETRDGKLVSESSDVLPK
Put plainly: SPR; published SPR data of Owens et al. (ref. 26) re-analysed here with ENZO: Enzyme Kinetics to calculate Kd; monomeric K18 wild type or S230T in solution, wild type K8 immobilised.

Assay [2] has as its target T1, keratin 8 wild type recombinant protein. Put plainly: SPR; published SPR data of Owens et al. (ref. 26) re-analysed here with ENZO: Enzyme Kinetics to calculate Kd; K8 wild type or mutant in solution, wild type K18 partner immobilised.
For assay [3], the target named is T2, keratin 8 G62C recombinant protein (human, UniProt P05787 1-483, G62C).
T2 construct: keratin 8 (K8) with the IBD patient mutation G62C, recombinant protein; The mutation was found in IBD patients; also called K8 G62C
T2 sequence (looked up): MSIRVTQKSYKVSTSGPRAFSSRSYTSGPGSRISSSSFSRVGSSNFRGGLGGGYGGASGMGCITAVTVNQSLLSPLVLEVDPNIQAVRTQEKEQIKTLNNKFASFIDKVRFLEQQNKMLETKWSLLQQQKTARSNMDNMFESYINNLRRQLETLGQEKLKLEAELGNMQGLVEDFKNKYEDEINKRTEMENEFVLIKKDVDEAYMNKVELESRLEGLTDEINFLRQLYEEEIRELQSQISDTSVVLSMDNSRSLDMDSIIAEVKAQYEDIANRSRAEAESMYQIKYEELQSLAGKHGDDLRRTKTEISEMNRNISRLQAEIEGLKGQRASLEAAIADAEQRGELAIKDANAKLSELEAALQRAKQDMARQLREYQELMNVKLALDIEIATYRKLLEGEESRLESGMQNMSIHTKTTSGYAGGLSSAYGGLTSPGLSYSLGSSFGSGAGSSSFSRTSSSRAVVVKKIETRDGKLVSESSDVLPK
The assay is described as above.

Assay [4] deals with T3, keratin 8 K464N recombinant protein (human, UniProt P05787 1-483, K464N).
T3 construct: keratin 8 (K8) with the IBD patient mutation K464N, recombinant protein; The mutation was found in IBD patients; also called K8 K464N
T3 sequence (looked up): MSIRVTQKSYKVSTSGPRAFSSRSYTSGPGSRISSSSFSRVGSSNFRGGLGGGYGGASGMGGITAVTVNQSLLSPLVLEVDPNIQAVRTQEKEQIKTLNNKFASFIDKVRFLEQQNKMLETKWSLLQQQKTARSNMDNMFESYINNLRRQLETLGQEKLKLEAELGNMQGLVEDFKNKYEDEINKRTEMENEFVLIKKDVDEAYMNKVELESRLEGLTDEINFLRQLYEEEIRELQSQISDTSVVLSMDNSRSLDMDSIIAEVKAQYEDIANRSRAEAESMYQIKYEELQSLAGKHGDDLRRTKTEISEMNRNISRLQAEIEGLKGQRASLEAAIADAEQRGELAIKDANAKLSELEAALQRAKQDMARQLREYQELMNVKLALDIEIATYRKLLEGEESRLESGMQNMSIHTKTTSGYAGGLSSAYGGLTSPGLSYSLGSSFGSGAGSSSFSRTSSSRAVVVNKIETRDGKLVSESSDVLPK
The assay is described as above.

B1: keratin 18 wild type recombinant protein (natural protein, human, UniProt P05783 1-430, looked up)
chain: MSFTTRSTFSTNYRSLGSVQAPSYGARPVSSAASVYAGAGGSGSRISVSRSTSFRGGMGSGGLATGIAGGLAGMGGIQNEKETMQSLNDRLASYLDRVRSLETENRRLESKIREHLEKKGPQVRDWSHYFKIIEDLRAQIFANTVDNARIVLQIDNARLAADDFRVKYETELAMRQSVENDIHGLRKVIDDTNITRLQLETEIEALKEELLFMKKNHEEEVKGLQAQIASSGLTVEVDAPKSQDLAKIMADIRAQYDELARKNREELDKYWSQQIEESTTVVTTQSAEVGAAETTLTELRRTVQSLEIDLDSMRNLKASLENSLREVEARYALQMEQLNGILLHLESELAQTRAEGQRQAQEYEALLNIKVKLEAEIATYRRLLEDGEDFNLGDALDSSNSMQTIQKTTTRRIVDGKVVSETNDTKVLRH
notes: keratin 18 (K18), wild type, recombinant protein; also called K18 WT; K18
As usually defined, the Kd is the free concentration of one partner at which half of the binding sites on the other are occupied at equilibrium, for simple one-to-one binding. As to B1, the Kd in assay [1] is 0.0085 µM; in assay [2] it was 0.0085 µM; in assay [3] it was 0.0262 µM; in assay [4], 0.0134 µM.

B2: keratin 18 S230T recombinant protein (natural protein, human, UniProt P05783 1-430, looked up)
chain: MSFTTRSTFSTNYRSLGSVQAPSYGARPVSSAASVYAGAGGSGSRISVSRSTSFRGGMGSGGLATGIAGGLAGMGGIQNEKETMQSLNDRLASYLDRVRSLETENRRLESKIREHLEKKGPQVRDWSHYFKIIEDLRAQIFANTVDNARIVLQIDNARLAADDFRVKYETELAMRQSVENDIHGLRKVIDDTNITRLQLETEIEALKEELLFMKKNHEEEVKGLQAQIATSGLTVEVDAPKSQDLAKIMADIRAQYDELARKNREELDKYWSQQIEESTTVVTTQSAEVGAAETTLTELRRTVQSLEIDLDSMRNLKASLENSLREVEARYALQMEQLNGILLHLESELAQTRAEGQRQAQEYEALLNIKVKLEAEIATYRRLLEDGEDFNLGDALDSSNSMQTIQKTTTRRIVDGKVVSETNDTKVLRH
notes: keratin 18 (K18) with the variation S230T found in an IBD patient and in controls, recombinant protein; Natural variant, earlier designated a polymorphism; also called K18 S230T
As to B2, the Kd in assay [1] was 0.161 µM.
